{"source": "patent US20180193413A1", "about": "(UNIVERSITY OF BRITISH COLUMBIA, published 2018)", "binders": {"B1": {"name": "Helianthamide (peptide)", "peptide": "ESGNSCYIYHGVSGICKASCAEDEKAMAGMGVCEGHLCCYKTPW", "modifications": "disulfide 16-33, 20-39, 6-38", "notes": "44-residue peptide with three disulfide bonds in a 1-5, 2-4, 3-6 pattern (C6-C38, C16-C33, C20-C39); crystal structure with PPA; also called recombinant Helianthamide; synthetic Helianthamide"}, "B2": {"name": "bar′-Helianthamide fusion (other)", "chain": "B1 peptide", "modifications": "not fully specified (N-terminus); ends and bridges not checked", "notes": "Uncleaved fusion secreted from E. coli BL21*(DE3), purified on nickel; The text says that the junction is a TEV site; also called barnase′-helianthamide"}, "B3": {"name": "Bar′-H10A (other)", "chain": "B1 peptide with H10A", "modifications": "not fully specified (N-terminus); ends and bridges not checked", "notes": "Tested as uncleaved fusion; also called H10A mutant of Helianthamide in bar′-Helianthamide fusion form"}, "B4": {"name": "Bar′-Y7A (other)", "chain": "B1 peptide with Y7A", "modifications": "not fully specified (N-terminus); ends and bridges not checked", "notes": "Tested as uncleaved fusion; also called Y7A mutant of Helianthamide in bar′-Helianthamide fusion form"}, "B5": {"name": "Bar′-Y9A (other)", "chain": "B1 peptide with Y9A", "modifications": "not fully specified (N-terminus); ends and bridges not checked", "notes": "Tested as uncleaved fusion; also called Y9A mutant of Helianthamide in bar′-Helianthamide fusion form"}}, "key": {"[1]": {"molecular_target": "T1, Human pancreatic α-amylase (human, UniProt P04746 16-511)", "T1 construct": "Recombinant, secreted from Pichia pastoris, purified and deglycosylated; also called HPA; human pancreatic alpha amylase", "T1 sequence": "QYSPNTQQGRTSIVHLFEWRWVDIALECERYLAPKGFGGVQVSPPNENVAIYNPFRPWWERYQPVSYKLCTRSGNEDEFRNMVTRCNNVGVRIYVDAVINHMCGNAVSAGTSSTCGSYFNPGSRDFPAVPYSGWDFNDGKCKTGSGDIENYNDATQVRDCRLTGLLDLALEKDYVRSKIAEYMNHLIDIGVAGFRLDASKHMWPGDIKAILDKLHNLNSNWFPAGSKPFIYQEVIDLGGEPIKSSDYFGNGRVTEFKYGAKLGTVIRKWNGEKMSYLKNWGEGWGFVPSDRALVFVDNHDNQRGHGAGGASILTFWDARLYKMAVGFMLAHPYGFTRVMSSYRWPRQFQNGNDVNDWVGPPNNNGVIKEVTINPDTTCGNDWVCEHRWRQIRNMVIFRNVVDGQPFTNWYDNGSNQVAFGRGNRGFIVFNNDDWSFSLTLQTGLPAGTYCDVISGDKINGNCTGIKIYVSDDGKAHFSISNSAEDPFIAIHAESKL", "experiment": "enzyme kinetics (CNP-G3 hydrolysis), Morrison tight-binding fit, competitive inhibition; recombinant helianthamide"}, "[2]": {"molecular_target": "T2, Porcine pancreatic α-amylase (porcine, UniProt P00690 16-511)", "T2 construct": "Bought enzyme; also called PPA", "T2 sequence": "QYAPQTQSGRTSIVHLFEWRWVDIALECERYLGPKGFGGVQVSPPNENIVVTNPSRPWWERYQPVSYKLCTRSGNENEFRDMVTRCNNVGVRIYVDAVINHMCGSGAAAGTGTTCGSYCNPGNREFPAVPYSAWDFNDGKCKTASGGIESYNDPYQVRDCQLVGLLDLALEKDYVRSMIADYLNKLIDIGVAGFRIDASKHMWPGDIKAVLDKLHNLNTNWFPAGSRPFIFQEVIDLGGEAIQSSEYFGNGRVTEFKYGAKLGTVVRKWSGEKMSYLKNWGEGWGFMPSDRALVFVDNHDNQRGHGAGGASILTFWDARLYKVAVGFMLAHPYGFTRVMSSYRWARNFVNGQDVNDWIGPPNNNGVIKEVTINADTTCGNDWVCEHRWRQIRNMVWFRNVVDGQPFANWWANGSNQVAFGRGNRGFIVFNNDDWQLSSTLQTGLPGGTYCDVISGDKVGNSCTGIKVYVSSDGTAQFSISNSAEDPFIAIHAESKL", "experiment": "enzyme kinetics, inhibition of glycosidase activity"}, "[3]": {"molecular_target": "T3, T163R HPA mutant (human, UniProt P04746 16-511)", "T3 construct": "it may be shifted against the precursor entry", "T3 sequence": "T1 sequence with T163R", "experiment": "enzyme kinetics, Ki against T163R HPA compared with HPA"}, "[4]": {"molecular_target": "T1, Human pancreatic α-amylase", "experiment": "enzyme kinetics (CNP-G3 hydrolysis), uncleaved bar′ fusion"}, "[5]": {"molecular_target": "T3, T163R HPA mutant", "experiment": "enzyme kinetics (CNP-G3 hydrolysis), uncleaved bar′ fusion"}, "[6]": {"molecular_target": "T1, Human pancreatic α-amylase", "experiment": "enzyme kinetics, Ki of bar′ fusion mutants against HPA"}}, "note": "Where a chain is given by its changes, count along the chain named. In names and notes the source's numbering stands. Bridges are numbered along the chain shown (N, C = ends). Where no end group is shown, it is not given here.", "data": [{"binder": "B1", "values": [{"measurement": "Ki", "setting": "[1]", "result": 0.01, "unit": "nM"}, {"measurement": "Ki", "setting": "[2]", "result": 0.1, "unit": "nM"}]}, {"binder": "B2", "values": [{"measurement": "fold decrease in potency (against wild-type HPA)", "setting": "[3]", "result": 20, "unit": "fold"}, {"measurement": "Ki", "setting": "[4]", "result": 0.9, "unit": "nM"}, {"measurement": "Ki", "setting": "[5]", "result": 20, "unit": "nM"}]}, {"binder": "B3", "values": [{"measurement": "Ki", "setting": "[4]", "result": 15, "unit": "nM"}, {"measurement": "Ki", "setting": "[5]", "result": 321, "unit": "nM"}]}, {"binder": "B4", "values": [{"measurement": "Ki", "setting": "[4]", "result": 5, "unit": "nM"}, {"measurement": "Ki", "setting": "[5]", "result": 107, "unit": "nM"}]}, {"binder": "B5", "values": [{"measurement": "fold decrease in potency (against the bar′-Helianthamide fusion)", "setting": "[6]", "result": 50, "unit": "fold"}, {"measurement": "Ki", "setting": "[4]", "result": 47, "unit": "nM"}, {"measurement": "Ki", "setting": "[5]", "result": 960, "unit": "nM"}]}]}
